The values that follow come from publication PMC9114487, “Generation of a High-Affinity Nanobody Against CD147 for Tumor Targeting and Therapeutic Efficacy Through Conjugating Doxorubicin” (Frontiers in Immunology, 2022).

B1: EGFP-VHH fusion protein EGFP-11-1 (VHH)
VHH: QVQLQESGGGSVQAGGSLRLSCAVSGYTYSSCSMDWYRQAPGKERELVSSISSGGNTYYEDSVKGRFTISQDNAKNTVYLQMNSLKPEDTASYYCKMWCPGNKSYWGQGTQVTVSS
notes: as the VHH of m1; About 40 kDa by SDS-PAGE; also called 11-1-EGFP; EGFP-11-1 Nbs; source: E. coli BL21(DE3), pET-25b, purified (His-Trap HP column); not shown: EGFP, C-terminal, kept
B2: anti-CD147 nanobody 11-1 (VHH)
VHH: QVQLQESGGGSVQAGGSLRLSCAVSGYTYSSCSMDWYRQAPGKERELVSSISSGGNTYYEDSVKGRFTISQDNAKNTVYLQMNSLKPEDTASYYCKMWCPGNKSYWGQGTQVTVSS
notes: Selected by phage display from an immune VHH library; The immunised animal is called an alpaca in the methods, a camel in the results and a Bactrian camel in the discussion; About 13 kDa by SDS-PAGE; Surmise: pET-15b usually adds an N-terminal His tag; also called Nb 11-1; anti-CD147-VHH Nb (11-1); source: E. coli BL21(DE3), pET-15b, purified (His-Trap HP column)
B3: V-24 (VHH)
VHH: QVQLQESGGGLVLPGGSLRLSCAAFGFIFSDFDMSWVRQAPGKGLEWVSSISRYGRTSSADSVKGRFTISRDNAKNTLYLQMHSLKTDDTAVYYCATGNFCSGGRCYIDRGQGTQVTVSS
B4: V-28 (VHH)
VHH: QVQLQESGGGSVQAGGSLRLSCAAFGFIFSNYDMSWVRQAPGKGLEWVSSISRYGRTSSADSVKGRFTISRDNAKNTLYLQMNSLKTDDTAVYYCTTGNFCSGGRCYSNRGQGTQVTVSS
B5: V-29 (VHH)
VHH: QVQLQESGGGLVQPGGSLRLSCAAFGFIFSNYDMSWVRQAPGKGFEWVSSISRYGRTSNADAVKGRFTISRDNAKNTLYLQMNSLKTDDTAVYYCATGNFCSGGRCYINRGQGTQVTVSS
B6: V-25 (VHH)
VHH: QVQLQESGGGLVQPGGSLRLSCAAFGFIFSNFDMSWVRQAPGKGLEWVSSISRYGRTSSADSVKGRFTISRDNAKNTLYLEMNSLKSADTAVYYCATGNFCSGGRCYINRGQGTQVTVSS
B7: V-27 (VHH)
VHH: QVQLQESGGGLVQPGGSLRLSCAAFGFIFSNYDMSWVRQAPGKGLEWVSSISRYGRTSSADSVKGRFTISRDNAKNTLYLQMNSLKTDDTAVYYCATGNFCSGGRCYIDRGQGTQVTVSS
B8: V-26 (VHH)
VHH: QVQLQESGGGSVQAGGSLRLSCAAFGFIFSNYDMSWVRQAPGKGFEWVSSISRYGRTSNADAVKGRFTISRDNAKNTLYLQMNSLKTDDTAVYYCATGNFCSGGRCYINRGQGTQVTVSS
B9: V-1 (VHH)
VHH: QVQLQESGGGSVQAGGSLRLSCRASGYTFSRHCMGWFRQGPGKEREVVATIYTFNGRTYYADSVKGRFTVSQDNAQNSLYLQMDSLKPEDTAMYYCAAARIGWTSVSGSCPRMGDVNKYWGQGTQVTVSS
B10: V-14 (VHH)
VHH: QVQLQESGGGSVQAGGSLRLSCRASGYTFSRHCMGWFRQGPGKEREVVATIYTFNGRTYYADSVKGRFTISQDNAQNSLYLQMDSLKPEDTAMYYCAAARIGWTSVSGSCPRMGDVNKYWGQGTQVTVSS
B11: V-13 (VHH)
VHH: QVQLQESGGGSVQAGGSLRLSCRASGYTFSEHCMGWFRQGPGKEREVVATIYTFNGRTYYADSVKGRFTISQDNAQNSLYLQMDSLKPEDTAMYYCAAARIGWTSVSGSCPRMGDVNKYWGQGTQVTVSS
B12: V-19 (VHH)
VHH: QVQLQESGGGSVQAGGSLRLSCRAPGYTFSRHCMGWFRQGPGEEREVVATIYTFNGRTTYADSVKGRFTISQDNAQNSLYLQMDSLKPEDTAMYYCAAARIGWTSASGSCPRMGDENKYWGQGTQVTVSS
B13: V-23 (VHH)
VHH: QVQLQESGGGSVQAGGSLRLSCRASGYTFSEHCMGWFRQGPGKERELVASIYTFNGRTYYADSVKGRFTISQDNAQNSLYLQMDSLKPEDTAMYYCAAARIGWTSVSGSCPRMGDVNKYWGQGTQVTVSS
B14: V-11 (VHH)
VHH: QVQLQESGGGSVQAGGSLRLSCRASGYTFSRHCMGWFRQGPGKERELVASIYTFNGRTYYADSVKGRFTISQDNAQNSLYLQMDSLKPEDTAMYYCAAARIGWTSVSGSCPRMGDENKYWGQGTQVTVSS
B15: V-2 (VHH)
VHH: QVQLQESGGGSVQAGGSLRLSCRASGYTFSRHCMGWFRQGPGKEREVVATIYTFNGHTYYADSVKGRFTISQDNPQNSLTLQMDSLKPEDTAMYYCAAARIGWTSVSGSCPRMGDVNKYWGQGTQVTVSS
B16: V-22 (VHH)
VHH: QVQLQESGGGSVQAGGSLRLSCRASGYTFSRHCMGWFRQTPGKEREVVATIYTFNGHTYYADSVKGRFTISQDNAQNSLYLQMDSLKPEDTAMYYCAAARIGWTSVSGSCPRMGDVNKYWGQGTQVTVSS
B17: V-3 (VHH)
VHH: QVQLQESGGGSVQAGGTLRLSCRVSGYTFSRHCMGWFRQGPGKEREVVATIYTFNGRTSYADSVKGRFTISQDNAQNSLYLQMDSLKPEDTATYYCAAARIGWTSVSGSCPRMGDENKYWGQGTQVTVSS
B18: V-10 (VHH)
VHH: QVQLQESGGGSVQAGGSLRLSCSVSGSTFSSCSMDWFRQAPGKERGLVSSISSGGNTYYEDSVKGRFTISQDNAKNTVYLQMNSLKPEDTAMYYCKMWCPGNKSYWGQGTQVTVSS
B19: V-17 (VHH)
VHH: QVQLQESGGGSVQAGGSLRLSCAVSGYTYSSCSMDWYRQAPGKERELVSSISSGGNTYYEDSVKGRFTISQDNAKNTVYLRMNSLKPEDTAIYYCKMWCPWNKSYWGQGTQVTVSS
B20: V-4 (VHH)
VHH: QVQLQESGGGSVQAGGSLRLSCSVSGGTFSSCSMDWFRQAPGKVRELVSSISSGGNTYYEDSVKGRFTISQDNAKTTVYLQMNSLKPEDTAMYYCKMFCPWNKSYWGQGTQVTVSS
B21: V-5 (VHH)
VHH: QVQLQESGGGSVQAGETLTLSCTASGYTFSSSNCMGWFRQAPGQEREDVAIISVRGGITYYADSVKGRFTISRDNAKNTLSLQMNSLKPEDTAVYYCAADNPKYRDLYNAHCNWSYRYWGQGTQVTVSS
B22: V-9 (VHH)
VHH: QVQLQESGGGSVQAGGSLRLSCAASGYTFSSSNCMGWFRQAPGQEREDVAIISVRGGITYYVDSVKGRFTISRDNAKNTLSLQMNNLKPEDTAVYYCAADNPKYRDLYDAHCNWSYRYWGQGTQVTVSS
B23: V-7 (VHH)
VHH: QVQLQESGGGSVQAGGSLRLSCAASGYTFSSSNCMGWFRQAPGKEREDVAIISVRGGITYYADSVKGRFTISRDSAKNTLSLQMNSLKPEDTAVYYCAADNPKYRALSDAHCNWSYRYWGQGTQVTVSS
B24: V-21 (VHH)
VHH: QVQLQESGGGSVQAGGSLRLSCAASGYTFSSSNCMGWFRQAPGKEREDVAIISVRGGITYYADSVKGRFTISRDSAKNTLSLQMNSLKSEDTAVYYCAADNPKYRQLSNAHCNWSYRYWGQGTQVTVSS
B25: V-20 (VHH)
VHH: QVQLQESGGGSVQAGGSLRLSCAASGYTFSSSNCMGWFRQAPGQEREDVAIISVRGGITYYVDSVKGRFTISRDNAKNTLSLQMNNLKPEDTAVYYCAADNPKYRDLHGGHCNWSYRYWGQGTQVTVSS
B26: V-15 (VHH)
VHH: QVQLQESGGGSAQAGGSLRLSCAASGYTFSSSNCMGWFRQAPGKEREGVAIISVRGGITYYADSVKGRFTISRDNAKNTLSLQMNSLKPEDTAVYYCAADNPKYRDLYDAHCNWSYRYWGQGTQVTVSS
B27: V-18 (VHH)
VHH: QVQLQESGGGSVQAGGSLRLSCAASGYTFSSSNCMGWFRQAPGKEREDVAIISVRGGITYYTDSVKGRFTISRDNAKNTLSLQMNNLKPDDTAVYYCAADNPKYRDLYGAHCNWSYRYWGQGTQVTVSS

The target of the first test is T1, ecto-domain protein of CD147 (Homo sapiens (assumed), isoform 2, UniProt P35613-2, biotin (Sulfo-NHS-LC-Biotin) in the BLI only).
T1 construct: CD147 (EMMPRIN, basigin), ecto-domain protein; also called CD147 protein; EMMPRIN
Put plainly: BLI; kinetics between CD147 and EGFP-11-1 (Figure 3F); who was immobilised is not told for this pair. The settings on record: both partners purified.
Target sequence in this assay (P35613 whole entry, looked up, tested part not stated, canonical isoform): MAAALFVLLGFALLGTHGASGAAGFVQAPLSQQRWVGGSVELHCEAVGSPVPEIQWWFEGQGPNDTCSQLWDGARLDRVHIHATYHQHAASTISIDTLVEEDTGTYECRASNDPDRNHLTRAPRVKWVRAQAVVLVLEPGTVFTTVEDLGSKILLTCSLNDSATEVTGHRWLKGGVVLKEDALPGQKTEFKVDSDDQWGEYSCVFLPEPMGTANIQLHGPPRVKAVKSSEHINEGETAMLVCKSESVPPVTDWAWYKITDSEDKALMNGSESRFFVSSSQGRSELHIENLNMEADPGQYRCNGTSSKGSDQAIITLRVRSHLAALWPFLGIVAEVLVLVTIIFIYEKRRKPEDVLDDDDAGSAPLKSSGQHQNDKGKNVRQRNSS
Consider B1, for which the Kd amounted to 11.1 nM.

A further test concerns the target C78 (C-terminal ecto-domain protein of CD147). The test can be described thus: BLI; ForteBio Octet; biotin-labeled CD147 or C78 immobilized on the sensors (200 s); Nb 11-1 at different concentrations in PBST, 200 s; PBST 100 s; room temperature, shaking 1,000 rpm.
Details: not given
In turn, B2 yielded a Kd of 1.78 nM, a koff of 0.000104 s⁻¹ and a kon of 58200 M⁻¹ s⁻¹.

The next test deals with T1, ecto-domain protein of CD147.
Test: not given
Details: not given
Target sequence in this assay (P35613 other isoform, or with tags, fused parts or gaps): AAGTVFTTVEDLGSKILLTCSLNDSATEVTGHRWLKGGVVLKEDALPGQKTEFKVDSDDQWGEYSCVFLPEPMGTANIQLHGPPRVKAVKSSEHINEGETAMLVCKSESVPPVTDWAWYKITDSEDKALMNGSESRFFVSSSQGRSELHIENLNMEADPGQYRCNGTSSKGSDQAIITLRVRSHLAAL
For the molecule B3, the binding result is “binds”.

With B4, the binding result is on record as “binds”.

B5: the binding result is listed as “binds”.

On to B6, for which the binding result was “binds”.

Regarding B7, the binding result is on record as “binds”.

Consider B8, for which the binding result is “binds”.

For B9, the binding result is on record as “binds”.

Regarding B10, the binding result was “binds”.

B11: the binding result is “binds”.

As for B12, the binding result is on record as “binds”.

Consider B13, for which the binding result is recorded as “binds”.

B14: the binding result is “binds”.

Regarding B15, the binding result is listed as “binds”.

B16: the binding result is “binds”.

As for B17, the binding result is listed as “binds”.

As for B18, the binding result was “binds”.

Turning to B19, the binding result is “binds”.

In the case of B20, the binding result is recorded as “binds”.

Consider B21, for which the binding result is listed as “binds”.

In the case of B22, the binding result is “binds”.

Turning to B23, the binding result is “binds”.

Consider B24, for which the binding result is “binds”.

On to B25, for which the binding result is “binds”.

Consider B26, for which the binding result is recorded as “binds”.

As to B27, the binding result was “binds”.

For the next test the target is unchanged. The test can be described thus: BLI; ForteBio Octet; biotin-labeled CD147 or C78 immobilized on the sensors (200 s); Nb 11-1 at different concentrations in PBST, 200 s; PBST 100 s; room temperature, shaking 1,000 rpm. As to conditions: both partners purified.
Target sequence in this assay (P35613 whole entry, looked up, tested part not stated, canonical isoform): as the sequence (P35613 whole entry, looked up, tested part not stated, canonical isoform) above
The molecule B2 had a Kd of 0.636 nM, a koff of 2.2e-05 s⁻¹ and a kon of 34600 M⁻¹ s⁻¹.
